# Measurements published in patent publication US7119066 (Regeneron, dated 2006).
# T1: rat CNTF receptor on rat superior cervical ganglia (SCG) neurons (rat, UniProt Q08406 23-342)
# T1 construct: whole, on cells; also called rat SCG neurons; rat receptor
# T1 sequence (looked up): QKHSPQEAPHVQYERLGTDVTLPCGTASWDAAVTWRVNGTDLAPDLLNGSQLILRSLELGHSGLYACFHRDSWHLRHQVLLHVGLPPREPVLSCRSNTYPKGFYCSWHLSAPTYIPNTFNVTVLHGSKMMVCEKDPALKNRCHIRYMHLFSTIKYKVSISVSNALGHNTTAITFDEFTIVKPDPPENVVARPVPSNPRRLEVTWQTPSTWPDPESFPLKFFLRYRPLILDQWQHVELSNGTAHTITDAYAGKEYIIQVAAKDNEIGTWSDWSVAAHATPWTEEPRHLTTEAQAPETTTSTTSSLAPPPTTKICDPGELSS
# T2: human CNTF receptor alpha-component on MG87/CNTFR fibroblasts (human, UniProt P26992 23-342)
# T2 construct: whole, on cells; also called huCNTFR; CNTFRα
# T2 sequence (looked up): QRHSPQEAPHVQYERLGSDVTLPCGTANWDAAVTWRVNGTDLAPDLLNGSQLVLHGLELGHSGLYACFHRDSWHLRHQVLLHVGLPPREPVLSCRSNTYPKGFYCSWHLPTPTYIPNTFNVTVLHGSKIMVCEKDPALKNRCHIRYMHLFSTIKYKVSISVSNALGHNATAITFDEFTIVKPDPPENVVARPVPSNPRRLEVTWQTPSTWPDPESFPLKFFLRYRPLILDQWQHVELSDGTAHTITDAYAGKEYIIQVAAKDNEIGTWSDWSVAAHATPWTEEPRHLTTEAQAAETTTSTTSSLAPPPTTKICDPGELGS
# Legend:
# [1] = biological target: T1, rat CNTF receptor on rat superior …; assay: competition with 125I-rat CNTF on rat SCG neurons
# Method: Growth medium consisted of Ham's nutrient mixture F12 with 10% heat-inactivated fetal bovine serum (Hyclone), nerve growth factor (NGF) (100 ng/ml), penicillin (50 U/ml) and streptomycin (50 µg/ml). Cultures were maintained at 37° C. in a humidified 95% air/5% CO_2 atmosphere. Ganglion non-neuronal cells were eliminated by treatment with araC (10 µM) on days 1 and 3 of culture. Cultures were fed 3 times/week and were routinely used for binding assays within 2 weeks.
# (§1) Binding was performed directly on cell monolayers. Cells in culture wells were washed once with assay buffer consisting of phosphate buffered saline (PBS; pH 7.4), 0.1 mM bacitracin, 1 mM PMSF, 1 µg/ml leupeptin, and 1 mg/ml BSA. […] Non-specific binding was determined in the presence of 1,000-fold excess of unlabelled CNTF. Specific binding towards MG87/CNTFR was 80–90%. Data were analyzed using the […] program (ISI, Philadelphia, Pa.).
# [2] = biological target: T2, human CNTF receptor alpha-component on …; assay: competition with 125I-rat CNTF on MG87/CNTFR cells
# Method: as §1
# Similar results were obtained from competition experiments with mouse fibroblasts transfected with a plasmid directing the expression of the human CNTF receptor (FIG. 4b).
binder,measurement,setting,value
"recombinant human CNTF (ciliary neurotrophic factor) (ligand, also called rHCNTF; hCNTF) MAFTEHSPLTPHRRDLCSRSIWLARKIRSDLTALTESYVKHQGLNKNINLDSADGMPVASTDQWSELTEAERLQENLQAYRTFHVLLARLLEDQQVHFTPTEGDFHQAIHTLLLQVAAFAYQIEELMILLEYKIPRNEADGMPINVGDGGLFEKKLWGLKVLQELSQWTVRSIHDLRFISSHQTGIPARGSHYIANNKKM",fold less potent than unlabelled rat CNTF,[1],90 times
same,fold less potent than rat CNTF,[2],12 times
